# Test results taken from patent US20130065244A1, “METHOD FOR PRODUCING cAMP USING [sequence] OLFACTORY RECEPTOR” (published 2013).
# B1: Rho-mOREG (mouse olfactory receptor for eugenol with N-terminal Rho tag) (receptor)
# chain: MNGTEGPNFYVPFSNKTGVVMTLSDGNHSGAVFTLLGFSDYPELTIPLFLIFLTIYSITVVGNIGMIVIIRINPKLHIPMYFFLSHLSFVDFCYSSIVAPKMLVNLVTMNRGISFVGCLVQFFFFCTFVVTESFLLGVMAYDRFVAIRNPLLYTVAMSQRLCAMLVLGSYAWGVVCSLILTCSALNLSFYGFNMINHFFCEFSSLLSLSRSDTSVSQLLLFVFATFNEISTLLIILLSYVLIVVTILKMKSASGRRKAFSTCASHLTAITIFHGTILFLYCVPNSKNSRHTVKVASVFYTVVIPMLNPLIYSLRNKDVKDTVKKIIGTKVYSS
# B2: Rho-myc-mOREG (mouse olfactory receptor for eugenol with Rho tag and myc epitope tag) (receptor)
# chain: MNGTEGPNFYVPFSNKTGVVEQKLISEEDLEFMTLSDGNHSGAVFTLLGFSDYPELTIPLFLIFLTIYSITVVGNIGMIVIIRINPKLHIPMYFFLSHLSFVDFCYSSIVAPKMLVNLVTMNRGISFVGCLVQFFFFCTFVVTESFLLGVMAYDRFVAIRNPLLYTVAMSQRLCAMLVLGSYAWGVVCSLILTCSALNLSFYGFNMINHFFCEFSSLLSLSRSDTSVSQLLLFVFATFNEISTLLIILLSYVLIVVTILKMKSASGRRKAFSTCASHLTAITIFHGTILFLYCVPNSKNSRHTVKVASVFYTVVIPMLNPLIYSLRNKDVKDTVKKIIGTKVYSS
# B3: chimeric olfactory receptor chimera1 (receptor)
# chain: MNGTEGPNFYVPFSNKTGVVEQKLISEEDLEFMTLSDGNHSGAVFTLLGFSDYPELTIPLFLIFLTIYSITVVGNIGMIVIIRINPKLHIPMYFFLSHLSFVDFCYSSIVAPKMLVNLVTMNRGISFVGCLVQFFFFCTFVVTESFLLGVMAYDRFVAIRNPLLYTVAMSQRLCAMLVLGSYAWGVVCSLILTCSALNLSFYGFNMINHFFCEFSSLLSLSRSDTSVSQLLLFVFATFNEISTLLIILLSYVLIVVTILKMKSASGRRKAFSTCASHLTAITIFHGTILFLYCVPNSKNSRHTVKVASVFYTVVIPMLNPLIYSLRNKDFRKAFQRLLCCARRAACRRRAAHGDRPRASGCLARAGPPPSPGAPSDDDDDDAGATPPARLLEPWAGCNGGTTTVDSDSSLDEPGRQGFSSESKV
# B4: chimeric olfactory receptor chimera3 (receptor)
# chain: MNGTEGPNFYVPFSNKTGVVEQKLISEEDLEFMGAGALALGASEPCNLSSAAPLPDGAATAARLLVLASPPASLLPPASEGSAPLSQQWTAGMGLLLALIVLLIVVGNVLVIVAIAKTPRLQTLTNLTRPMYFFLSHLSFVDFCYSSIVAPKMLVNLVTMNRGISFVGCLVQFFFFCTFVVTESFLLGVMAYDRFVAIRNPLLYTVAMSQRLCAMLVLGSYAWGVVCSLILTCSALNLSFYGFNMINHFFCEFSSLLSLSRSDTSVSQLLLFVFATFNEISTLLIILLSYVLIVVTILKMKSASGRRKAFSTCASHLTAITIFHGTILFLYCVPNSKNSRHTVKVASVFYTVVIPMLNPLIYSLRNKSRDFRKAFQRLLCCARRAACRRRAAHGDRPRASGCLARAGPPPSPGAPSDDDDDDAGATPPARLLEPWAGCNGGTTTVDSDSSLDEPGRQGFSSESKV
# B5: chimeric olfactory receptor chimeraTM7 (receptor)
# chain: MNGTEGPNFYVPFSNKTGVVEQKLISEEDLEFMTLSDGNHSGAVFTLLGFSDYPELTIPLFLIFLTIYSITVVGNIGMIVIIRINPKLHIPMYFFLSHLSFVDFCYSSIVAPKMLVNLVTMNRGISFVGCLVQFFFFCTFVVTESFLLGVMAYDRFVAIRNPLLYTVAMSQRLCAMLVLGSYAWGVVCSLILTCSALNLSFYGFNMINHFFCEFSSLLSLSRSDTSVSQLLLFVFATFNEISTLLIILLSYVLIVVTILKMKSASGRRKAFSTCASHLTAITIFHGTILFLYCVPNSKNSRHTPDRLFVFFNWLGYANSAFNPIIYCRSPDFRKAFQRLLCCARRAACRRRAAHGDRPRASGCLARAGPPPSPGAPSDDDDDDAGATPPARLLEPWAGCNGGTTTVDSDSSLDEPGRQGFSSESKV
# B6: chimeric olfactory receptor chimeraIC3 (receptor)
# chain: MNGTEGPNFYVPFSNKTGVVEQKLISEEDLEFMTLSDGNHSGAVFTLLGFSDYPELTIPLFLIFLTIYSITVVGNIGMIVIIRINPKLHIPMYFFLSHLSFVDFCYSSIVAPKMLVNLVTMNRGISFVGCLVQFFFFCTFVVTESFLLGVMAYDRFVAIRNPLLYTVAMSQRLCAMLVLGSYAWGVVCSLILTCSALNLSFYGFNMINHFFCEFSSLLSLSRSDTSVSQLLLFVFATFNEISTLLIILLSYVFREAQKQVKKIDSCERRFLSGPPRPPSPAPSPSPGPPRPADSLANGRSSKRRPSRLVALREQKAFSTCASHLTAITIFHGTILFLYCVPNSKNSRHTVKVASVFYTVVIPMLNPLIYSLRNKDVKDTVKKIIGTKVYSS
# B7: chimeric olfactory receptor chimeraIC3-IC4 (receptor)
# chain: MNGTEGPNFYVPFSNKTGVVEQKLISEEDLEFMTLSDGNHSGAVFTLLGFSDYPELTIPLFLIFLTIYSITVVGNIGMIVIIRINPKLHIPMYFFLSHLSFVDFCYSSIVAPKMLVNLVTMNRGISFVGCLVQFFFFCTFVVTESFLLGVMAYDRFVAIRNPLLYTVAMSQRLCAMLVLGSYAWGVVCSLILTCSALNLSFYGFNMINHFFCEFSSLLSLSRSDTSVSQLLLFVFATFNEISTLLIILLSYVFREAQKQVKKIDSCERRFLSGPPRPPSPAPSPSPGPPRPADSLANGRSSKRRPSRLVALREQKAFSTCASHLTAITIFHGTILFLYCVPNSKNSRHTVKVASVFYTVVIPMLNPLIYSLRNKDFRKAFQRLLCCARRAACRRRAAHGDRPRASGCLARAGPPPSPGAPSDDDDDDAGATPPARLLEPWAGCNGGTTTVDSDSSLDEPGRQGFSSESKV
# Key:
# [1] = biological target: Gαolf (G protein alpha subunit which is specifically expressed on an olfactory epithelium) (mouse) (UniProt Q8CGK7)
# [2] = biological target: Gαolf (G protein alpha subunit which is specifically expressed on an olfactory epithelium) (mouse, UniProt Q8CGK7); assay: cell-based or functional assay
Molecule,"concentration of cAMP (EIA, normalised to protein) after isoproterenol [1] [pmol/µg]",concentration increase value of the cAMP (300 µM eugenol minus 0 µM) [2] [pmol/microgram]
beta-1 adrenergic receptor (β1AR),0.956,–
B1,–,0.0061
B2,–,0.0109
B3,–,0.0185
B4,–,0.0009
B5,–,0.0056
B6,–,0.0017
B7,–,0.004
